{"source": "the nanobody polyreactivity screen of Harvey et al. (2022)", "data": [{"test": "yeast display, Sf9 membrane polyspecificity reagent, FACS + sequencing; frameworks hold sequencing errors", "how_it_was_run": "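Sorting gates, low and high (top ~1%), were placed on anti-HA fluorescence to track expression and on streptavidin fluorescence to track reagent binding. A clone's polyreactivity label is taken from the gate it came out of. The reagent was 10% biotinylated, detergent-solubilized Sf9 membrane, applied for 1 hour at 4 °C to galactose-induced yeast display cells.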", "values": [{"sequence": "QVQLVESGGGLVQAGGSLRLSCAASGSIFLSNPMGWYRQAPGKERELVAAITSGGRTTYADSVKGRFTISRDNAKNTVYLQMNSLKPEDTAVYYCAARQRWYWRGYDYWGQGTQVTVSS", "polyreactivity (PSR sort gate)": "high polyreactivity"}, {"sequence": "QVQRVESGGGLVQAAGSLRLSCAASGRTFIYYAKGWYRHEPGKERELVAGISRNGGRTYYADSVKGRFTISRDNAKNTVYLQMNSLKPEDTAVYYCNAYPPSRHDYCGQGTQVTVSS", "polyreactivity (PSR sort gate)": "high polyreactivity"}, {"sequence": "QVQLVESGGGLVQAGGSLRLSCAASGSTFTTNAMGWYRQAPGKERELVAAISWSGTTTYYADSVKGRFTISRDNAKNTVYLQMNSLKPEDTAVYYCAAQVVSGTVAYLDFGYWGQGTQVTVSS", "polyreactivity (PSR sort gate)": "low polyreactivity"}, {"sequence": "QVQLVESGGGLVQAGGSLRLSCAASGRILDRYAMGWYRQAPGKERELVAVITDRGGNTYYADSVKGRFTISRDNAKNTVYLQMNSLKPEDTAVYYCAVYAYWRFRTYYYWGQGTQVTVSS", "polyreactivity (PSR sort gate)": "high polyreactivity"}, {"sequence": "QVQLVESGGGLVQAGGSLRLICAASGSIFFWYTMGWYRQAPGKERELVATITGSGSSTTYADSVKGRFTISRDNAKYTVYLQMNSLKPEDTAVYYCAAADIIDHSFPYDYWGQGTQVTVSS", "polyreactivity (PSR sort gate)": "low polyreactivity"}, {"sequence": "QVQLVESGGGLVQAGGSLRLSCAASGSIFTHYAMGWYRQAPGKERELVAGITSSGGSTYADSVKGRFTISRDNAKNTVYLQMNSLKPEDTAVYYCNADNATYFVYEFNYWGQGTQVTVSS", "polyreactivity (PSR sort gate)": "low polyreactivity"}, {"sequence": "QVQLVESGGGLVQAGGSLRLSCAASGSIFTTYAMGWSRQAPGKERELVAAISRSGGSTYSADSVKGRFTISRDNANYTVYLQKNSLKPEDTAVYYCNAVSRYTSDYEDDYWGLGTQVTVSS", "polyreactivity (PSR sort gate)": "high polyreactivity"}, {"sequence": "QVQLVESGGGLVQAGGSLRLSCAASGFIFYAYAMGWYRQAPGKERELVPAISRRGGSTYYADSVKGRFTISRDNAKNTVYLQMNSLKPEDTAVYYCARDWTLGRSGPKYGYWGQGTQVTVSS", "polyreactivity (PSR sort gate)": "high polyreactivity"}, {"sequence": "QVQLEESGGCLVQAGGSLRLSCAASGFTFYQNAMGWYRQAPGKERELVAAISSGASTYYADSVKGRFTISRDNAKNTVYLQMNSLKPEDTAVYYCAADRYKPSLRWRRPKMNYWGQGTQVTVSS", "polyreactivity (PSR sort gate)": "high polyreactivity"}, {"sequence": "QVQLVESGGGLVQAGGSLRLSCAASGSTFGANAMGWYRQAPGKERELVAVITWNDGSTYYADSVKGRFTISRDNAKNTVYLQMNSLKPEDTAVYYCAAEYADSWSAFDWNYYYWVQGTQVTVSS", "polyreactivity (PSR sort gate)": "high polyreactivity"}, {"sequence": "QVQLVESGGGLVQGGGSLRLSCDDSGRNFNAYSRGWYRQATAKERELVAAISSRGGSTYYADSVKGRFTISRDNEMNSVYLKMNSLQPEDSAVYYFAAGIYTATGYGYWGQGTQVTVSS", "polyreactivity (PSR sort gate)": "high polyreactivity"}, {"sequence": "QVQLVESGGGLVQAGGSLRIICAASGRTFDRYAMRGYRQAPGKERELVAASTRRGTTTYYADSVKVRFSISRDYAKNTVYLQMYSLKPEDTAVYYCAAKRGCVSRPDYGANDESWGQGTQVTVSS", "polyreactivity (PSR sort gate)": "high polyreactivity"}, {"sequence": "QVQLVESGGGLVQAGGSLRLTCAASGLTFTTYALGWYRQAPGKERELVAAISRRGSRTYYADSVKGRFTISRDNAKNTVYLQMNSLKPEDTAVYYCNALTGSFKTYSFDYWGQGTQVTVSS", "polyreactivity (PSR sort gate)": "high polyreactivity"}, {"sequence": "QVQLVESGGGLVQAGGSLRLSCAASGSIFRWNAMGWYRQAPGKERELVAAISKSGGRRYYADSVKGRFTISRDNAKNTVYLQMNSVKPEDTAVYYCAAGYTTTQYYGPQYDYWGQGTQVTVSS", "polyreactivity (PSR sort gate)": "high polyreactivity"}, {"sequence": "QVQLEESGGGLVQAGGSLRLSCAASGRTFDRYAMGWYRQAPGKERELVAAITWSGGRTYYADSVKGRFTISRDNPKNTVYLQMNSLKPEDTAVYYCATAYYYHGGYYYPYDVDYWGQGTQVTVSS", "polyreactivity (PSR sort gate)": "low polyreactivity"}, {"sequence": "EEELVESGGGIVQAGGSLRLSCAASGFIFGYNAMGWYRQAPGKERELVAAISSGDDTNYADSVKGRFTISRDNAKNTVYLQMNSLKPEDTAVYYCAAEVWTAFTLGSYWSVVDYDYWGQGTQVSVSS", "polyreactivity (PSR sort gate)": "low polyreactivity"}, {"sequence": "QVQLVESGGGLVQAGGSLRFSCAASGNIFVVYTMGWDRQAPGKERELVADITSIGTSTYYADSVKGRFTISRDNAKNTVYLQMNSLKPEDTAVYYCNKDGSVWGKYTEYYWGQGTQVTVAS", "polyreactivity (PSR sort gate)": "low polyreactivity"}, {"sequence": "QVQLVESGGGLVQAGGSLRLSCAASGGIFSRYAMGWYRQAPGKEREFVAAISFSGASTYYTDSVKGRFTISRDTAKNTVYLQMNSLKPEDTAVYYCAAYWDAEGRRYTRLDYWGQGTQVTVSS", "polyreactivity (PSR sort gate)": "low polyreactivity"}, {"sequence": "KVQLVESGGGIVQAGGSLRLSCAASGSTFVRNAMGWYRQAPGKERELVAGITFGGGSTYYADSVKGRFTISRDNAKNTVYLQMNSLKAEDTAVYFCAKRDYSPWPAAGYPYDYDYWGQGTQVTVSS", "polyreactivity (PSR sort gate)": "low polyreactivity"}, {"sequence": "QVQLVESGRGLVQAGGSLRLSCAASGRTFARYAIGWYRPAPGKERELVATIRRVGSTNYADSVNGRFTISRDNAKNTVYLQMNSLKPEDTAVYYCAARSLRYGRGMYYWGQGTQVTVSS", "polyreactivity (PSR sort gate)": "high polyreactivity"}, {"sequence": "QVQLVESGGGLVQAGGSLRLSCAASGFTFQAYAMGWYRQAPGKERELVAAINFSTGRTYYADSVKGRFTISRDNAKNTVYLQMNSLKPEDTAVYYCAADGSWTRSYDFDYWGQGTQLTVSS", "polyreactivity (PSR sort gate)": "high polyreactivity"}, {"sequence": "QVQLVESGGGLVQAGGSLRLSCAASGRTFWGYAMGWYRQAPGKERELVAAISWSGTSTYYADSVKGRFTISRDNAKNTVYLQMNRLKPEDSAVYYCARAVNDWSRKYNYWGQGTLVTVSS", "polyreactivity (PSR sort gate)": "high polyreactivity"}, {"sequence": "QVQLVESGGGLVQAGGSLRLSCAASGSTFHHYAMGWYRQAPGKERELVAAITTSGGRTYYADSVKGRFTISRDNAKNTVYLQMNSLKPEDTAVYYCAADRFFYRGGYYYWGQGTQVTVSS", "polyreactivity (PSR sort gate)": "high polyreactivity"}, {"sequence": "QVQLVESGGGLVQAGGSLRLSCAASGRTFYFNAMGWYRQAPGKERELVAAITFSGGSTNYADSVKGRFTISRDNAKNTVYLQMNSLKPEDTAVYYCAAPKYLGTDEYDYWGQGTQVTVSS", "polyreactivity (PSR sort gate)": "low polyreactivity"}, {"sequence": "QVQLVESGGGLVQAGGSLRLSCAASGRIFRRYAMGWYRQAPGKERELVAAITRSGGSTYYADSVKGRFTISRDNAKNTVYLQMNSLKPEDTAVYYCNAPSSLGTDYDYWGQGTQVTVSS", "polyreactivity (PSR sort gate)": "high polyreactivity"}, {"sequence": "QVQLVESGGGLVQAGGSLRLSCAASGRTFWPYAMGWYRQAPGKERELLAAITSDGSTTYADSVKGRFTISRDNAKNTVYLQMNSLTPEDTAVYYCAAYGYYYYQTIPMDYWGQGTQVTVSS", "polyreactivity (PSR sort gate)": "low polyreactivity"}, {"sequence": "QVQLVESGGGLVQAGGSLRLSCAASGRTFGYYAMGWYRQAPGKERELVAAISWSGGSTRYADSVKGRFTISRDNAKNTVYFQLNSLKPEDTAVYYCAADSWYSFAGVYRVYGEDYWGQGTQVTVSS", "polyreactivity (PSR sort gate)": "high polyreactivity"}, {"sequence": "QVQLVESGGGLVQAGGSLRLSCAASGITFAPYAMGWYRQAPGKERELVAVISSGGSTKYADSVKGRFTISRDNAKNTVYLQMNSLKPEDTAVYYCAASAPRGYGYKYYYWGQGTQVTVSS", "polyreactivity (PSR sort gate)": "high polyreactivity"}, {"sequence": "QVQLVESGGGLVQAGGSLRLSCAASGRTFYRNPMGWYRQAPGKEWELVAGITRCGRTYYADSVKGRFRISRDNAKNTVYLQMNCLKPEDTAVYYCNKTGGNGNDYWGQGTQVTVSS", "polyreactivity (PSR sort gate)": "low polyreactivity"}, {"sequence": "QVQLVESGGGLVQAGGSLRLSCAASGIIFYRYTMGWYRQAPGKERELVAAITSGGDTNYADSVKGRFTISRDNAKNTVYLQMNSLKPEDTAVYYCNADCWWYLYLYDFWGQGTQVTVSS", "polyreactivity (PSR sort gate)": "high polyreactivity"}, {"sequence": "QVQLEESGGGLVQAGGSLRLSCAASGRTFVWYAMGWYRQAPGKERELVAAISRSGGSTYYADSVKGRFTISRDNAKNTVYLQMNSLKPEDTAVYYCAAEFYIAPPYDYWGQGTQVTVSS", "polyreactivity (PSR sort gate)": "high polyreactivity"}, {"sequence": "QVQLVESGGGLVQAGGSLRLSCAASGFTFRYYVMGWYRQAPGIERELVAAISWSGGSTYYADSVKGRFTISRDNAKYTVYLQMNSLNPEDTAVYYCNAASLSKSDYWGQGTQVTVSS", "polyreactivity (PSR sort gate)": "high polyreactivity"}, {"sequence": "QVQLVESGGGLVQAGGSLRLSCAASGSIFGLNAMGWYRQAPGKEREFVAAIDKNGAGTYYADSVKGRFTISRDNAKNTVYLQMNSLKPEDTAVYYCAAEYRSYGWYGYVVEYDYWGLGTQVTVSS", "polyreactivity (PSR sort gate)": "high polyreactivity"}, {"sequence": "QVQLVESGGGLVQAGGSLRLSCAASGFIFGGFTMGWSRQAPGNERELVAAISRSGGSTYYADSVKGRFTISRDNAKNTVYLQMNSLKPEDTAVYYCATLNYYGEVEYWGQGTQVTVSS", "polyreactivity (PSR sort gate)": "high polyreactivity"}, {"sequence": "QVQLVESGGGLVQAGGSLRLSCAASGSTFFRNAMGWYRQAPGKERELVAGITSGVTTYYADSVKGRFTISRDNAKNTVYLQMNSLKPEDTAVYYCAARRTGYRLRKSDYWGQGTQVTVSS", "polyreactivity (PSR sort gate)": "high polyreactivity"}, {"sequence": "QVQLVESGGGLVQAGCSLRLSCAASGRIFDYYAMGWNRQAPGKERELVAAISYSGGSTHYADSVKGRFTISRDNAKNSVYLQMISLKPEDTAVYYCAGWAWSGVEYDYWGQGSQVTVSS", "polyreactivity (PSR sort gate)": "low polyreactivity"}, {"sequence": "QVHLVESGGGLGKAGGSLRLTCAASGSTFKYYAMAWYRQAPGKETELVAAISQRGGSTYYADSVKGRFTISRYNAKNTVYLQMNCLKPEDTAVYYCNAGFQRAYSGPGYDMDYWGQGTQVTVSS", "polyreactivity (PSR sort gate)": "high polyreactivity"}, {"sequence": "QVQLVESGGGLVQAGGSLRLSCAASGRIFDVNAMGWYRQAPGKERELVAAIRSGGRTNYADSVKGRFTISRDNAKNTVYLQMNSLKPEDTAVYYCAAVVWSSLDDYWGLGTQVTVSS", "polyreactivity (PSR sort gate)": "high polyreactivity"}, {"sequence": "QVQLVESGGGLVQAGGSLRLSCAASGITFSRYAMGWYRQAPGKERELVAAISSGGSTYYADSVKGRFTISRDNAKNTVYLQMNSLIPEDTAVYYCAADGLTGSKYRATGYYWGQGTQVTVSS", "polyreactivity (PSR sort gate)": "high polyreactivity"}, {"sequence": "QVQLVESGGGLVQAGGSLRISCAASGFTFFSNAMGWYRKAPGKERELVAAITSSGGSTYADTVKGRFTISRDNAKNTVYLQMNRLKPEDTAVYYCAADAQAPPGGFKEYDYWGQGTQVTVSS", "polyreactivity (PSR sort gate)": "low polyreactivity"}, {"sequence": "QVQLLESGGGLVQAGGSLRLSFAASGYIFSVNAMGWYRQAPGQERELVATIRTDGTTNYADSVNGRFTISRDNAKNTVYLKMNSLKPEDTAVYYCATDSGWSTYDYWGQGTQVTVSS", "polyreactivity (PSR sort gate)": "high polyreactivity"}, {"sequence": "QVQLVESGGGLVQAGGSLRLSCAASGSIFFPYAMGWYRQAPGKERELVAAISYSGTSRYYADSVKGRFTISRDNAKNTVYLQMNSLKPEDTAVYYCAAYSRYYASYDYWGQGTQVTVSS", "polyreactivity (PSR sort gate)": "high polyreactivity"}, {"sequence": "QVQLVESGGGLVQAGGSLRLSCAASGSIFTSNAMGWYRQAPVKERELVASISSDGSTKYADSVKGRFTISRDNAKNTVYLQMNSLKPEDTAVYYCAADLGYWVYVEYDYWGQGTQVTVSS", "polyreactivity (PSR sort gate)": "low polyreactivity"}]}]}
